In series [1] the test system is HeLa Kyoto. As to the kind of experiment: solubility change mitosis vs G1/S (difference of NP-40 vs SDS log2 ratios) (log2 ratio difference); higher = more soluble in mitosis.
Series [2] deals with HeLa Kyoto. Description: solubility in G1/S (NP-40 vs SDS abundance) (log2 ratio); higher = more soluble. Particulars: cell cycle stage: G1/S.
The test system of series [3] is HeLa Kyoto. Description: thermal stability score vs G1/S (z-score of summed log2 fold changes over temperatures); higher = more thermally stable than in G1/S.
Series [4] relates to HeLa Kyoto. Description: melting temperature (median over replicates), in situ; higher = more thermally stable.
The mark [5] stands for this setting: cell cycle stage: early G1 (4.5 h after nocodazole release).

The record followed here is the supplement of paper PMC5998384.
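Wherever melting temperature (median over replicates), in situ is given: HeLa Kyoto cells synchronized by double thymidine or nocodazole block, proteins quantified by TMT10plex mass spectrometry, three independent biological replicates.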
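Wherever solubility change mitosis vs G1/S (difference of NP-40 vs SDS log2 ratios) is given: synchronized HeLa Kyoto cells (double thymidine block for G1/S, nocodazole release for mitosis), protein amounts in NP-40 versus SDS lysates quantified by mass spectrometry, three biological replicates.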
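Wherever solubility in G1/S (NP-40 vs SDS abundance) is given: HeLa Kyoto cells arrested at G1/S by double thymidine block, proteins quantified by TMT10plex mass spectrometry in mild NP-40 versus SDS extracts, three biological replicates.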
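Wherever thermal stability score vs G1/S (z-score of summed log2 fold changes over temperatures) is given: synchronized HeLa Kyoto cells, proteins quantified by TMT10plex mass spectrometry, three biological replicates, mitosis taken 0.5 h after nocodazole release, G1/S directly after double thymidine block.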

On to “MNVVFAVKQYISKMIEDSGPGMKVLLMDKETTGIVSMVYTQSEILQKEVYLFERIDSQNREIMKHLKAICFLRPTKENVDYIIQELRRPKYTIYFIYFSNVISKSDVKSLAEADEQEVVAEVQEFYGDYIAVNPHLFSLNILGCCQGRNWDPAQLSRTTQGLTALLLSLKKCPMIRYQLSSEAAKRLAECVKQVITKEYELFEFRRTEVPPLLLILDRCDDAITPLLNQWTYQAMVHELLGINNNRIDLSRVPGISKDLREVVLSAENDEFYANNMYLNFAEIGSNIKNLMEDFQKKKPKEQQKLESIADMKAFVENYPQFKKMSGTVSKHVTVVGELSRLVSERNLLEVSEVEQELACQNDHSSALQNIKRLLQNPKVTEFDAARLVMLYALHYERHSSNSLPGLMMDLRNKGVSEKYRKLVSAVVEYGGKRVRGSDLFSPKDAVAITKQFLKGLKGVENVYTQHQPFLHETLDHLIKGRLKENLYPYLGPSTLRDRPQDIIVFVIGGATYEEALTVYNLNRTTPGVRIVLGGTTVHNTKSFLEEVLASGLHSRSKESSQVTSRSASRR [VPS45]”, for which the “solubility change mitosis (log2)” value in series [1] was -0.166. Also, in series [2], the “solubility in G1/S (log2)” value was 0.0246. The results for the thermal stability score in series [3] (setting [5]) and in series [3] (cell cycle stage: mitosis) were 0.581 and 1.21, respectively. Moreover, the values for the melting temperature in series [4] (cell cycle stage: G1/S) and in series [4] (cell cycle stage: mitosis) were 49.6 °C and 49.9 °C, respectively.

Regarding “METPSQRRATRSGAQASSTPLSPTRITRLQEKEDLQELNDRLAVYIDRVRSLETENAGLRLRITESEEVVSREVSGIKAAYEAELGDARKTLDSVAKERARLQLELSKVREEFKELKARNTKKEGDLIAAQARLKDLEALLNSKEAALSTALSEKRTLEGELHDLRGQVAKLEAALGEAKKQLQDEMLRRVDAENRLQTMKEELDFQKNIYSEELRETKRRHETRLVEIDNGKQREFESRLADALQELRAQHEDQVEQYKKELEKTYSAKLDNARQSAERNSNLVGAAHEELQQSRIRIDSLSAQLSQLQKQLAAKEAKLRDLEDSLARERDTSRRLLAEKEREMAEMRARMQQQLDEYQELLDIKLALDMEIHAYRKLLEGEEERLRLSPSPTSQRSRGRASSHSSQTQGGGSVTKKRKLESTESRSSFSQHARTSGRVAVEEVDEEGKFVRLRNKSNEDQSMGNWQIKRQNGDDPLLTYRFPPKFTLKAGQVVTIWAAGAGATHSPPTDLVWKAQNTWGCGNSLRTALINSTGEEVAMRKLVRSVTVVEDDEDEDGDDLLHHHHGSHCSSSGDPAEYNLRSRTVLCGTCGQPADKASASGSGAQVGGPISSGSSASSVTVTRSYRSVGGSGGGSFGDNLVTRSYLLGNSSPRTQSPQNCSIM [LMNA]”, the “solubility change mitosis (log2)” value in series [1] was determined as 1.64. In addition, the “solubility in G1/S (log2)” value in series [2] was -1.05. For the same sequence, the thermal stability score in series [3] (setting [5]) is -9.6; in series [3] (cell cycle stage: mitosis) it was -5.85. Moreover, the results for the melting temperature in series [4] (cell cycle stage: G1/S) and in series [4] (cell cycle stage: mitosis) were 54.8 °C and 52.9 °C, respectively.

“MDLGPLNICEEMTILHGGFLLAEQLFHPKALAELTKSDWERVGRPIVEALREISSAAAHSQPFAWKKKALIIIWAKVLQPHPVTPSDTETRWQEDLFFSVGNMIPTINHTILFELLKSLEASGLFIQLLMALPTTICHAELERFLEHVTVDTSAEDVAFFLDVWWEVMKHKGHPQDPLLSQFSAMAHKYLPALDEFPHPPKRLRSDPDACPTMPLLAMLLRGLTQIQSRILGPGRKCCALANLADMLTVFALTEDDPQEVSATVYLDKLATVISVWNSDTQNPYHQQALAEKVKEAERDVSLTSLAKLPSETIFVGCEFLHHLLREWGEELQAVLRSSQGTSYDSYRLCDSLTSFSQNATLYLNRTSLSKEDRQVVSELAECVRDFLRKTSTVLKNRALEDITASIAMAVIQQKMDRHMEVCYIFASEKKWAFSDEWVACLGSNRALFRQPDLVLRLLETVIDVSTADRAIPESQIRQVIHLILECYADLSLPGKNKVLAGILRSWGRKGLSEKLLAYVEGFQEDLNTTFNQLTQSASEQGLAKAVASVARLVIVHPEVTVKKMCSLAVVNLGTHKFLAQILTAFPALRFVEEQGPNSSATFMVSCLKETVWMKFSTPKEEKQFLELLNCLMSPVKPQGIPVAALLEPDEVLKEFVLPFLRLDVEEVDLSLRIFIQTLEANACREEYWLQTCSPFPLLFSLCQLLDRFSKYWQLPKEKRCLSLDRKDLAIHILELLCEIVSANAETFSPDVWIKSLSWLHRKLEQLDWTVGLRLKSFFEGHFKCEVPATLFEICKLSEDEWTSQAHPGYGAGTGLLAWMECCCVSSGISERMLSLLVVDVGNPEEVRLFSKGFLVALVQVMPWCSPQEWQRLHQLTRRLLEKQLLHVPYSLEYIQFVPLLNLKPFAQELQLSVLFLRTFQFLCSHSCRDWLPLEGWNHVVKLLCGSLTRLLDSVRAIQAAGPWVQGPEQDLTQEALFVYTQVFCHALHIMAMLHPEVCEPLYVLALETLTCYETLSKTNPSVSSLLQRAHEQRFLKSIAEGIGPEERRQTLLQKMSSF [GEMIN4]”: the “solubility change mitosis (log2)” value in series [1] is -0.14. For the same sequence, the “solubility in G1/S (log2)” value in series [2] was -0.428. Also, the thermal stability score was found to be 0.771 in series [3] (setting [5]) and 3.29 in series [3] (cell cycle stage: mitosis). Besides, the melting temperature in series [4] (cell cycle stage: G1/S) was determined as 47 °C; in series [4] (cell cycle stage: mitosis), 49.3 °C.

In the case of “MSLVAYASSDESEPDEAEPEPEEEEAVAPTSGPALGGLFASLPAPKGPALLPPPPQMLAPAFPPPLLLPPPTGDPRLQPPPPLPFGLGGFPPPPGVSPAEAAGVGEGLGLGLPSPRGPGLNLPPPIGGAGPPLGLPKPKKRKEPVKIAAPELHKGDSDSEEDEPTKKKTILQGSSEGTGLSALLPQPKNLTVKETNRLLLPHAFSRKPSDGSPDTKPSRLASKTKTSSLAPVVGTTTTTPSPSAIKAAAKSAALQVTKQITQEEDDSDEEVAPENFFSLPEKAEPPGVEPYPYPIPTVPEELPPGTEPEPAFQDDAANAPLEFKMAAGSSGAPWMPKPGDDYSYNQFSTYGDANAAGAYYQDYYSGGYYPAQDPALVPPQEIAPDASFIDDEAFKRLQGKRNRGREEINFVEIKGDDQLSGAQQWMTKSLTEEKTMKSFSKKKGEQPTGQQRRKHQITYLIHQAKERELELKNTWSENKLSRRQTQAKYGF [PRCC]”, the “solubility change mitosis (log2)” value in series [1] is -0.00665. In addition, in series [2], the “solubility in G1/S (log2)” value turned out to be 0.46. For the same sequence, the thermal stability score in series [3] (setting [5]) is -2.8; in series [3] (cell cycle stage: mitosis) it was -0.438. In addition, the values for the melting temperature in series [4] (cell cycle stage: G1/S) and in series [4] (cell cycle stage: mitosis) were 53.2 °C and 53.8 °C, respectively.

“MAAAEEEPKPKKLKVEAPQALRENILFGMGNPLLDISAVVDKDFLDKYSLKPNDQILAEDKHKELFDELVKKFKVEYHAGGSTQNSIKVAQWMIQQPHKAATFFGCIGIDKFGEILKRKAAEAHVDAHYYEQNEQPTGTCAACITGDNRSLIANLAAANCYKKEKHLDLEKNWMLVEKARVCYIAGFFLTVSPESVLKVAHHASENNRIFTLNLSAPFISQFYKESLMKVMPYVDILFGNETEAATFAREQGFETKDIKEIAKKTQALPKMNSKRQRIVIFTQGRDDTIMATESEVTAFAVLDQDQKEIIDTNGAGDAFVGGFLSQLVSDKPLTECIRAGHYAASIIIRRTGCTFPEKPDFH [ADK]”: the “solubility change mitosis (log2)” value in series [1] was -0.112. Also, the “solubility in G1/S (log2)” value in series [2] came out at 0.242. Besides, the thermal stability score in series [3] (setting [5]) worked out at 1.79; in series [3] (cell cycle stage: mitosis), 2.86. The melting temperature is 56.3 °C in series [4] (cell cycle stage: G1/S) and 56.9 °C in series [4] (cell cycle stage: mitosis).

As to “MDFNMKKLASDAGIFFTRAVQFTEEKFGQAEKTELDAHFENLLARADSTKNWTEKILRQTEVLLQPNPSARVEEFLYEKLDRKVPSRVTNGELLAQYMADAASELGPTTPYGKTLIKVAEAEKQLGAAERDFIHTASISFLTPLRNFLEGDWKTISKERRLLQNRRLDLDACKARLKKAKAAEAKATTVPDFQETRPRNYILSASASALWNDEVDKAEQELRVAQTEFDRQAEVTRLLLEGISSTHVNHLRCLHEFVKSQTTYYAQCYRHMLDLQKQLGRFPGTFVGTTEPASPPLSSTSPTTAAATMPVVPSVASLAPPGEASLCLEEVAPPASGTRKARVLYDYEAADSSELALLADELITVYSLPGMDPDWLIGERGNKKGKVPVTYLELLS [SH3GLB2]”, the “solubility change mitosis (log2)” value in series [1] is -0.0988. In addition, the “solubility in G1/S (log2)” value in series [2] turned out to be 0.445. Further, the values for the thermal stability score in series [3] (setting [5]) and in series [3] (cell cycle stage: mitosis) were -1.15 and 0.211, respectively. Further, the melting temperature amounted to 49.7 °C in series [4] (cell cycle stage: G1/S) and 50.1 °C in series [4] (cell cycle stage: mitosis).
